Measured values taken from the supplement of paper PMC9112550, “Optimization of the antimicrobial peptide Bac7 by deep mutational scanning” (BMC Biology, 2022).

What follows are sequences tested on Escherichia coli TOP10 (assay: shrunken log2 fold change of peptide-encoding DNA abundance (4.5 h post-induction vs induction); higher = less antimicrobial activity (less host growth inhibition)). Conditions: time post-induction: 4.5 h; library: site-saturation at positions 5, 18, 19, 20.
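Also: peptides expressed intracellularly from a pBAD plasmid library in pooled LB shake-flask culture, induced with 0.3% L-arabinose, DNA abundance read by NGS, three biological replicates, DESeq2 with apeglm shrinkage.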

Row | Sequence | shrunken log2 fold change
1 | RRIRIRPPRLPRPRPRPSPRPRP | -0.0771
2 | RRIRIRPPRLPRPRPRPSQEPRP | -0.317
3 | RRIRIRPPRLPRPRPRPSQFPRP | -0.604
4 | RRIRIRPPRLPRPRPRPSQHPRP | -0.71
5 | RRIRIRPPRLPRPRPRPSRDPRP | -0.0607
6 | RRIRIRPPRLPRPRPRPSSYPRP | -0.207
7 | RRIRIRPPRLPRPRPRPSTFPRP | -0.329
8 | RRIRIRPPRLPRPRPRPSTTPRP | -0.189
9 | RRIRIRPPRLPRPRPRPSVVPRP | 0.055
10 | RRIRIRPPRLPRPRPRPSWSPRP | -0.458
11 | RRIRIRPPRLPRPRPRPSYCPRP | -0.408
12 | RRIRIRPPRLPRPRPRPSYPPRP | -0.56
13 | RRIRIRPPRLPRPRPRPTAFPRP | -0.532
14 | RRIRIRPPRLPRPRPRPTAIPRP | -0.574
15 | RRIRIRPPRLPRPRPRPTCAPRP | -0.166
16 | RRIRIRPPRLPRPRPRPTCHPRP | -0.467
17 | RRIRIRPPRLPRPRPRPTCPPRP | 0.00857
18 | RRIRIRPPRLPRPRPRPTCWPRP | 0.151
19 | RRIRIRPPRLPRPRPRPTFGPRP | -0.28
20 | RRIRIRPPRLPRPRPRPTFKPRP | -0.102
21 | RRIRIRPPRLPRPRPRPTFQPRP | -0.0244
22 | RRIRIRPPRLPRPRPRPTHGPRP | 0.0479
23 | RRIRIRPPRLPRPRPRPTHQPRP | 0.0537
24 | RRIRIRPPRLPRPRPRPTKIPRP | -0.158
25 | RRIRIRPPRLPRPRPRPTLGPRP | -0.139

Row | Sequence | shrunken log2 fold change
26 | RRIRIRPPRLPRPRPRPTMTPRP | -0.0629
27 | RRIRIRPPRLPRPRPRPTNEPRP | -0.4
28 | RRIRIRPPRLPRPRPRPTNVPRP | -0.174
29 | RRIRIRPPRLPRPRPRPTPKPRP | -0.0169
30 | RRIRIRPPRLPRPRPRPTRLPRP | 0.0583
31 | RRIRIRPPRLPRPRPRPTSRPRP | -0.0459
32 | RRIRIRPPRLPRPRPRPTTSPRP | -0.0703
33 | RRIRIRPPRLPRPRPRPTVGPRP | 0.152
34 | RRIRIRPPRLPRPRPRPTVRPRP | 0.158
35 | RRIRIRPPRLPRPRPRPVADPRP | 0.0861
36 | RRIRIRPPRLPRPRPRPVAKPRP | -0.0157
37 | RRIRIRPPRLPRPRPRPVCEPRP | 0.0639
38 | RRIRIRPPRLPRPRPRPVCHPRP | -0.179
39 | RRIRIRPPRLPRPRPRPVCIPRP | -0.527
40 | RRIRIRPPRLPRPRPRPVCTPRP | -0.159
41 | RRIRIRPPRLPRPRPRPVDSPRP | 0.0804
42 | RRIRIRPPRLPRPRPRPVENPRP | -0.0976
43 | RRIRIRPPRLPRPRPRPVGNPRP | 0.00174
44 | RRIRIRPPRLPRPRPRPVGWPRP | 0.668
45 | RRIRIRPPRLPRPRPRPVHEPRP | -0.139
46 | RRIRIRPPRLPRPRPRPVISPRP | -0.43
47 | RRIRIRPPRLPRPRPRPVITPRP | -0.553
48 | RRIRIRPPRLPRPRPRPVKCPRP | 0.101
49 | RRIRIRPPRLPRPRPRPVKYPRP | -9.3e-05
50 | RRIRIRPPRLPRPRPRPVMEPRP | -0.194

Row | Sequence | shrunken log2 fold change
51 | RRIRIRPPRLPRPRPRPVMHPRP | 0.152
52 | RRIRIRPPRLPRPRPRPVMIPRP | -0.00671
53 | RRIRIRPPRLPRPRPRPVMRPRP | 0.144
54 | RRIRIRPPRLPRPRPRPVNPPRP | 1.75
55 | RRIRIRPPRLPRPRPRPVPIPRP | -0.403
56 | RRIRIRPPRLPRPRPRPVQKPRP | 0.0154
57 | RRIRIRPPRLPRPRPRPVQWPRP | 0.0754
58 | RRIRIRPPRLPRPRPRPVRHPRP | -0.0859
59 | RRIRIRPPRLPRPRPRPVSFPRP | 0.00232
60 | RRIRIRPPRLPRPRPRPVSTPRP | -0.342
61 | RRIRIRPPRLPRPRPRPVTCPRP | -0.255
62 | RRIRIRPPRLPRPRPRPVTVPRP | 0.129
63 | RRIRIRPPRLPRPRPRPVVHPRP | -0.000671
64 | RRIRIRPPRLPRPRPRPWAAPRP | 0.00251
65 | RRIRIRPPRLPRPRPRPWACPRP | -0.406
66 | RRIRIRPPRLPRPRPRPWADPRP | -0.435
67 | RRIRIRPPRLPRPRPRPWAGPRP | -0.291
68 | RRIRIRPPRLPRPRPRPWAQPRP | 0.0697
69 | RRIRIRPPRLPRPRPRPWASPRP | 0.00397
70 | RRIRIRPPRLPRPRPRPWCAPRP | -0.377
71 | RRIRIRPPRLPRPRPRPWDLPRP | -0.119
72 | RRIRIRPPRLPRPRPRPWDSPRP | -0.0632
73 | RRIRIRPPRLPRPRPRPWHFPRP | -0.0737
74 | RRIRIRPPRLPRPRPRPWHYPRP | -0.111
75 | RRIRIRPPRLPRPRPRPWKHPRP | -0.0111
